Among the data in patent US20260207759A1, “COMPOSITION OF CD40-BINDING MOLECULE AND PHARMACEUTICAL USE THEREOF” (SUZHOU SUNCADIA BIOPHARMACEUTICALS CO., LTD., priority 2022, published 2026) are IC50 values, retold here.

The assay addresses CD40 (Homo sapiens, UniProt P25942). Description: DC cell activation assay system (monocyte-derived DC, CD40L-induced CD80/CD86, IL-12/23 p40, TNFα). Type of assay: cell-based. Details: endogenous in cells; host or cells: human PBMCs (B cells); DCs differentiated from human CD14+ monocytes. The text has this: CD40 is highly expressed on dendritic cells (DCs), and CD40L, upon binding to CD40, can induce DC activation, up-regulate the expression of multiple activation markers on the DC cell surface, and promote the secretion of multiple inflammatory factors from DCs, further amplifying immune responses. CD40 antagonistic antibodies block the binding of CD40L to CD40, thereby eliminating the immune activation process of DC cells.
Monocytes were sorted and enriched from fresh primary human peripheral blood PBMCs using the EsaySep™ human CD14 sorting kit (Stemcell, 19359), and differentiated for 6 days with RPMI-1640 medium (10% FBS and 1% penicillin-streptomycin), 50 ng/ml IL-4 (PeproTech, 200-04), and 50 ng/mL GM-CSF (PeproTech, 300-03). On day 7, the differentiated DC cells were plated at 1E5/well into a 96-well cell culture plate. Serially diluted test antibodies were added to the wells, and the cells were co-incubated at 37° C. in 5% CO2 for 0.5 h. CD40L-his and an anti-His antibody were then added to each well at final concentrations. After 48 h of culture, the level of DC cell activation was measured by flow cytometry: after centrifugation, the supernatant was removed, and the cells were washed twice with FACS buffer (PBS+2% FBS) and stained at room temperature for 15 min with 100 μL of Fixable viability dye EF780 (Invitrogen, 65086514) diluted at 1:1000. The cells were washed twice and then blocked at room temperature for 10 min with 100 μL of human Fc blocker (BD, 564220) diluted at 1:200. After centrifugation, the cells were incubated at 4° C. for 0.5 h with flow cytometry antibodies (Alexa Fluor® 700 anti-human CD11c (Biolegend, 337220), Brilliant Violet 421™ anti-human CD80 (Biolegend, 305221), and APC anti-human CD86 (Biolegend, 305412)) diluted at 1:200. After centrifugation, the supernatant was removed, the cells were washed twice with FACS buffer and then resuspended in 200 μL of PBS, and the fluorescence intensity on the cell surface was measured by a flow cytometer (BD FACS Celesta).
In addition, the level of cytokine secretion in the supernatant was measured after 24 h (TNFα, Cisbio, 62[…]) and 48 h (IL-12/23 p40, Novus, VAL121) of culture.
With reference to the method in Example 11, the inhibitory activity of the anti-CD40 antibody 9E6-L4H2-AAYTE carrying the AAYTE mutation in the Fc in the DC cell activation assay system was measured.

Like-named read-outs stand apart in the source and are kept apart here.

Sequence of CD40 (P25942 21-277): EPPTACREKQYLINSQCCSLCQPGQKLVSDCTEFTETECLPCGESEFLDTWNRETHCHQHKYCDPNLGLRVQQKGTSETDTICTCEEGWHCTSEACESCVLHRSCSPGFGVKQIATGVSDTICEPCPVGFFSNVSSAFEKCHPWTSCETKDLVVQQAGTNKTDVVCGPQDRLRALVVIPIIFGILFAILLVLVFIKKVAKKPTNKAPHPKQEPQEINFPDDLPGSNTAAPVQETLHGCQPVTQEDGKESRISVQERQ

For the substance “CFZ533: anti-CD40 antagonistic antibody CFZ533 (i.e., iscalimab), positive control, variable regions from U.S. Pat. No. 8,277,810B”, the IC50 runs as follows: (48 h, read-out: IC50 (nM) in DC cell activation assay system, CD80 MFI) 1.19 nM; (48 h, read-out: IC50 (nM) in DC cell activation assay system, CD86 MFI) 1.93 nM; (supernatant, 24 h, read-out: IC50 (nM) in DC cell activation assay system, TNFα) 0.35 nM; (supernatant, 48 h, read-out: IC50 (nM) in DC cell activation assay system, IL-12/23 p40) 0.68 nM.
